Reference: patent US20050170504
pKd: −log10 of the molar value.

Target: TmHU (HU protein) (Thermotoga maritima) (UniProt P36206)
Experiment: SPR
Conditions: transition midpoint of Hill curve, 50 mM sodium phosphate pH 7.5, 100 mM NaCl

Chain of UniProt P36206 (P36206 other isoform, or with tags, fused parts or gaps): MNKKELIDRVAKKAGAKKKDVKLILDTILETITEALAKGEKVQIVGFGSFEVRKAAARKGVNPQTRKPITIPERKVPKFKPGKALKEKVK

| Substance | pKd (Hill coefficient 7.6) | pKd (Hill coefficient 1.3) |
| --- | --- | --- |
| 56 bp dsDNA fragment | 7.14 | – |
| 23 bp dsDNA fragment | – | 7.14 |
